Here are results for six molecules from publication PMC9127584 (2022).

Values joined by “and” are separate entries in the source; they are usually repeats but may differ in a detail not shown here. Equal entries are not always repeated.

The Kd is the equilibrium constant for the complex coming apart.

In experiment [1] the target is DREB2A 243-272 (Arabidopsis thaliana) (UniProt O82132). Nature of the experiment: ITC. Particulars: cited from earlier work.
Experiment [2] deals with ANAC013 254-274 (Arabidopsis thaliana) (UniProt F4IED2). Nature of the experiment: ITC. Conditions: cited from earlier work.
Experiment [3] has as its target T1, DREB2A 243-272 (Arabidopsis thaliana, UniProt O82132).
T1 chain: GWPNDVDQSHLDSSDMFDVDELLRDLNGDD
Nature of the experiment: ITC. A general note: ITC needs no label: the signal is the heat of the interaction.

For experiment [4], the target named is T2, ANAC013 254-274 (Arabidopsis thaliana, UniProt F4IED2).
T2 chain: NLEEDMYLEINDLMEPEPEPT
Put plainly: ITC.

The target in experiment [5] is T3, DREB2A (Arabidopsis thaliana (Mouse-ear cress), UniProt O82132).
T3 chain: T1 chain
Put plainly: ITC 25 C.

Experiment [6] has as its target T4, ANAC013 (Arabidopsis thaliana (Mouse-ear cress), UniProt F4IED2).
T4 chain: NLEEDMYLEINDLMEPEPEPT
Put plainly: ITC 25 C.

For the molecule RCD1 RST (from UniProt Q8RY59), the Kd in experiment [1] was 16 nM. Regarding RCD1 499-572 (from UniProt Q8RY59), the dissociation constant (Kd) in experiment [1] was 16 nM; in experiment [2], 9 nM.

B1: AtTAF4 180-254 (protein)
chain: NVNPINRNPKQVPFAALLPTLMNQLDKDRALQLRTLYARLKKNEIPKEGFTRHMKDIVGDQMLRMAVSKLQQVNY
In the case of B1, the Kd in experiment [3] is 740 nM and 1050 nM; in experiment [4], 1080 nM.

B2: HsTAF4_TAFH (protein)
chain: TSSAATETMENVKKCKNFLSTLIKLASSGKQSTETAANVKELVQNLLDGKIEAEDFTSRLYRELNSSPQPYLVPFLKRSLPALRQLTPDSAAFIQQS
Regarding B2, the dissociation constant (Kd) in experiment [5] stood at 110 nM.

B3: AtRCD1_RST (protein)
chain: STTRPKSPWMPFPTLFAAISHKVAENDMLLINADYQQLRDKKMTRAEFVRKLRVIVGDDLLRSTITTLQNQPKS
For the molecule B3, the dissociation constant (Kd) was 16 nM in experiment [5] and 9 nM in experiment [6].

B4: AtTAF4_RST (protein)
chain: NPINRNPKQVPFAALLPTLMNQLDKDRALQLRTLYARLKKNEIPKEGFTRHMKDIVGDQMLRMAVSKLQQVNY
For B4, the dissociation constant (Kd) came to 740 nM in experiment [5] and 1080 nM in experiment [6].
